± gives the uncertainty stated by the source.
B1: Chromodomain-helicase-DNA-binding protein 4, residues 365 to 417; numbered along this chain, Q14839 (parent)
chain: YETDHQDYCEVCQQGGEIILCDTCPRAYHMVCLDPDMEKAPEGKWSCPHCEKE
B2: Transcription elongation factor A N-terminal and central domain-containing protein, residues 30 to 77; numbered along this chain, Q8N8B7 (parent)
chain: LTELETIYVTKEHLQETDVVRAVYRVLKNCPSVALKKKAKCLLSKWKA

Variants of: B1
Test: abundance fitness (aPCA) (normalised: wild type 0, dead -1); higher = more abundant; growth selection in yeast, the domain comes from the species named
Conditions: Homo sapiens

Abundance fitness of substitutions, site by site:
Y1: N -0.028 ± 0.25, R 0.048 ± 0.45, M 0.64 ± 0.43, C 0.19 ± 0.22, S 0.108 ± 0.35, V 0.348 ± 0.26, L -0.316 ± 0.31, W 0.441 ± 0.17, F 0.069 ± 0.47, A 0.534 ± 0.26, D -0.863 ± 0.28, K 0.593 ± 0.38
D7: R -0.005 ± 0.11, W -0.346 ± 0.14, S 0.037 ± 0.12, Q 0.119 ± 0.19, C -1.06 ± 0.33, V -0.19 ± 0.11, F -0.544 ± 0.26, G 0 ± 0.092, H -0.51 ± 0.48, Y -0.003 ± 0.21, T 0.067 ± 0.15, P -0.29 ± 0.24, E 0.015 ± 0.11, I -0.458 ± 0.22, K -0.075 ± 0.2, A -0.095 ± 0.1, N -0.183 ± 0.11, M -0.037 ± 0.19
D4: W -0.173 ± 0.1, T -0.168 ± 0.11, G 0.008 ± 0.077, A -0.066 ± 0.093, I -0.089 ± 0.13, Q 0.114 ± 0.14, E 0.1 ± 0.11, M 0.299 ± 0.13, N -0.114 ± 0.17, C 0.071 ± 0.1, H 0.304 ± 0.29, F -0.031 ± 0.16, S -0.127 ± 0.11, K 0.23 ± 0.17, L -0.003 ± 0.091, Y 0.004 ± 0.23
E2: D 0.033 ± 0.15, A -0.143 ± 0.12, Y 0.426 ± 0.18, M 0.621 ± 0.28, W 0.297 ± 0.2, Q 0.654 ± 0.23, P 0.263 ± 0.2, L 0.386 ± 0.13, K 0.077 ± 0.29, G 0.102 ± 0.1, T 0.349 ± 0.23, I 0.176 ± 0.2, R 0.406 ± 0.15, H 0.347 ± 0.29, C 0.484 ± 0.24, S 0.425 ± 0.16
C12: N -0.605 ± 0.28, I -0.342 ± 0.23, F -0.529 ± 0.37, G -0.799 ± 0.1, Y -1.07 ± 0.15, R -0.87 ± 0.1, M -0.643 ± 0.14, L -0.962 ± 0.11, T -0.46 ± 0.13, E -0.683 ± 0.12, S -0.977 ± 0.12, K -0.775 ± 0.17, V -0.887 ± 0.1, D -0.944 ± 0.28, H -0.948 ± 0.45, Q -0.49 ± 0.27, A -0.952 ± 0.13, W -0.948 ± 0.13
Y8: E -0.109 ± 0.11, D -0.269 ± 0.13, F 0.471 ± 0.29, P 0.033 ± 0.11, T 0.221 ± 0.11, G -0.291 ± 0.08, I -0.099 ± 0.17, Q 0.427 ± 0.12, R 0.155 ± 0.098, W -0.107 ± 0.14, V -0.124 ± 0.088, A -0.052 ± 0.09, N -0.13 ± 0.28, H 0.481 ± 0.15, M 0.011 ± 0.12, L 0.031 ± 0.1, C -0.222 ± 0.18
H5: M 0.41 ± 0.12, T 0.349 ± 0.13, R 0.193 ± 0.086, W -0.23 ± 0.12, C -0.083 ± 0.27, N 0.12 ± 0.15, F -0.059 ± 0.19, Q -0.111 ± 0.15, A 0.283 ± 0.098, G 0.158 ± 0.081, V 0.208 ± 0.088, S 0.224 ± 0.099, D -0.801 ± 0.18, I 0.092 ± 0.15, P 0.19 ± 0.13, K -0.044 ± 0.15
V11: T 0.195 ± 0.13, H 0.155 ± 0.2, Y 0.008 ± 0.14, W -0.019 ± 0.12, P -0.257 ± 0.15, N 0.223 ± 0.16, C 0.063 ± 0.12, F 0.262 ± 0.14, A -0.098 ± 0.12, G 0.129 ± 0.084, Q -0.268 ± 0.18, M 0.223 ± 0.15, S -0.085 ± 0.1, K 0.127 ± 0.13, L 0.134 ± 0.094, I -0.064 ± 0.1
Q13: C -0.045 ± 0.14, K -0.474 ± 0.18, H -0.135 ± 0.18, A 0.206 ± 0.12, G 0.037 ± 0.09, M 0.156 ± 0.15, L -0.091 ± 0.11, I -0.208 ± 0.24, D 0.12 ± 0.33, F -0.063 ± 0.23, E -0.036 ± 0.13
C9: S -0.676 ± 0.099, I -0.868 ± 0.17, Y -1.02 ± 0.12, L -0.717 ± 0.096, R -0.678 ± 0.11, E -0.943 ± 0.15, M -0.562 ± 0.14, G -0.825 ± 0.094, T -0.791 ± 0.14, A -0.929 ± 0.11, F -1.09 ± 0.21, D -0.777 ± 0.16, V -1.01 ± 0.11, H -0.739 ± 0.22, Q -0.845 ± 0.14, P -0.712 ± 0.16
T3: A -0.396 ± 0.14, R 0.024 ± 0.1, Y 0.034 ± 0.3, W -0.182 ± 0.14, Q -0.29 ± 0.26, P -0.225 ± 0.16, C 0.124 ± 0.19, H -0.461 ± 0.29, K 0.205 ± 0.16, M 0.19 ± 0.18, L 0.141 ± 0.1, D -0.022 ± 0.43, F 0.059 ± 0.16, V 0.103 ± 0.12, E 0.074 ± 0.15, G 0.13 ± 0.1, I 0.111 ± 0.17, S 0.185 ± 0.11, N -0.106 ± 0.2
E10: S 0.035 ± 0.11, C -0.26 ± 0.17, K -0.063 ± 0.15, H -0.383 ± 0.17, I 0.204 ± 0.2, T -0.093 ± 0.15, A -0.155 ± 0.1, P -0.157 ± 0.14, V -0.197 ± 0.1, Y 0.133 ± 0.21, W 0.015 ± 0.14, F -0.015 ± 0.14, N -0.182 ± 0.24, R -0.022 ± 0.11, L 0 ± 0.12, Q -0.358 ± 0.24
Q6: P -0.161 ± 0.2, C -0.212 ± 0.12, H -0.359 ± 0.31, G -0.384 ± 0.13, L -0.239 ± 0.096, A -0.269 ± 0.26, S 0.026 ± 0.12, E -0.306 ± 0.36, V -0.347 ± 0.095, F -0.606 ± 0.15, W -0.347 ± 0.097, Y -0.243 ± 0.2

Variants of: B2
Test: as above
Conditions: Homo sapiens

Abundance fitness: each site, then its substitutions
C41: L 0.047 ± 0.097, S 0.093 ± 0.11, H 0.239 ± 0.12, D -0.182 ± 0.18, Q 0.293 ± 0.14, K 0.171 ± 0.13, M -0.232 ± 0.18, Y -0.558 ± 0.16, R 0.167 ± 0.09, G 0.025 ± 0.083, V 0.042 ± 0.087, P -1.22 ± 0.26, T -0.073 ± 0.21, F 0.005 ± 0.22, I -0.202 ± 0.47, E 0.019 ± 0.17, N 0.268 ± 0.38
S44: E -0.262 ± 0.17, C -0.73 ± 0.15, R 0.021 ± 0.086, I -0.695 ± 0.28, P -0.891 ± 0.14, N -0.351 ± 0.15, F -0.158 ± 0.13, A -0.232 ± 0.11, Y -0.398 ± 0.21, M -0.148 ± 0.15, V -0.48 ± 0.11, K -0.312 ± 0.21, D -0.537 ± 0.18, G -0.141 ± 0.1, H 0.079 ± 0.25, W -0.237 ± 0.13
L42: I -0.283 ± 0.18, C -0.839 ± 0.36, V -0.354 ± 0.086, P -1.01 ± 0.35, G -1.05 ± 0.12, S -0.77 ± 0.12, T -0.703 ± 0.2, E -0.993 ± 0.2, H -1.02 ± 0.45, D -0.894 ± 0.19, A -0.689 ± 0.11, Y -0.737 ± 0.28, N -0.871 ± 0.26, K -1.13 ± 0.23, W -0.026 ± 0.098, M -0.203 ± 0.17, F -0.174 ± 0.14, Q -0.791 ± 0.25
A39: V 0.096 ± 0.078, R -0.968 ± 0.093, S -0.745 ± 0.13, Y -0.452 ± 0.17, N -0.61 ± 0.36, L -0.089 ± 0.08, M -0.016 ± 0.12, T -0.512 ± 0.14
K45: C -0.352 ± 0.14, F 0.204 ± 0.27, R -0.123 ± 0.11, Y -0.1 ± 0.21, S -0.55 ± 0.11, I -1.01 ± 0.4, L -0.513 ± 0.13, M -0.63 ± 0.18, P -0.667 ± 0.42, E -0.748 ± 0.13, T -0.656 ± 0.18, V -0.918 ± 0.17, D -0.443 ± 0.16, G -0.894 ± 0.12, A -0.57 ± 0.11, Q -0.782 ± 0.23, N -0.361 ± 0.14
L43: E -0.915 ± 0.23, R -0.889 ± 0.11, C -0.647 ± 0.21, F 0.047 ± 0.12, S -1.04 ± 0.18, T -1.05 ± 0.21, K -1.04 ± 0.24, M -0.138 ± 0.15, V -0.272 ± 0.084, D -0.829 ± 0.19, Q -0.527 ± 0.14, Y -0.256 ± 0.22, A -0.787 ± 0.15, W 0.127 ± 0.087, G -1.12 ± 0.14, P -0.789 ± 0.29
W46: D -1.05 ± 0.21, N -0.823 ± 0.34, T -0.705 ± 0.18, G -1.07 ± 0.14, S -0.96 ± 0.14, A 0.105 ± 0.097, P -0.765 ± 0.23, I 0.258 ± 0.17, L 0.022 ± 0.079, Q -0.792 ± 0.23, Y -0.504 ± 0.18, E -1.03 ± 0.22, V -0.035 ± 0.094, R -0.758 ± 0.12, C -0.313 ± 0.12
A48: R 0.034 ± 0.37, V -0.62 ± 0.18, T 0.162 ± 0.24, W -0.469 ± 0.26, P -0.565 ± 0.22, H -0.331 ± 0.23, L -1.22 ± 0.37
K47: S -0.967 ± 0.19, R -0.431 ± 0.11, D -0.762 ± 0.2, N -0.625 ± 0.22, L -0.508 ± 0.13, E -1.08 ± 0.35, M -0.252 ± 0.14, W 0.025 ± 0.13, T -0.351 ± 0.22, Q -0.46 ± 0.2, F 0.101 ± 0.44, G -0.605 ± 0.12, P -0.334 ± 0.27, H -0.268 ± 0.16, I -0.47 ± 0.23, V 0.019 ± 0.099, A -0.739 ± 0.17

From the Human Domainome abundance scans (Beltran et al. 2025)
